Several values for one entry are separate records, joined by “and”; a condition that tells them apart may be missing. Identical values can stand only once.
How the values were obtained:
[1] = Aβ aggregation assay (soluble peptide after centrifugation); format: physicochemical, human
Protocol: Aβ stock was diluted to 2.5 μM in 150 mM NaCl and 20 mM glycine (pH 3-4.5), MES (pH 5-6.2) or HEPES (pH 6.4-8.8), with or without metal ions, incubated (30 min., 37° C.), centrifuged (20 min., 10000 g). The amount of protein in the supernatant was determined by the Micro BCA protein assay as described above.
The resultant aggregated particles were sedimented by centrifugation to permit determination of soluble Aβ1-40 in the supernatant. To determine the centrifugation time required to completely sediment the aggregated particles generated under these conditions, Aβ1-40 was incubated for 30 min at 37° C. with no metal, Zn^2+ (100 μM), Cu^2+ (100 μM) and pH (5.5). Reaction mixtures were centrifuged at 10000 g for different times, or ultracentrifuged at 100000 g for 1 h. (FIG. 1). […] Aβ1-40 was incubated (30 min., 37° C.) with no metal, under acidic conditions (pH 5.5), Zn^2+ (100 μM) or Cu^2+ (100 μM), and centrifuged at 10000 g for different time intervals, or at 100,000 g (ultracentrifuged) for 1 h for comparison. All data points are means ±SD, n=3.
Since the conformational state and solubility of Aβ is altered at different pH (Soto, C., et al., J. Neurochem. 63:1191-1198 (1994)), the effects of [H^+] on Zn^2+- and […] Aβ1-40 aggregation were studied. […] All data points are means ±SD, n=3. [H^+] alone precipitates Aβ1-40 (2.5 μM) as the solution is lowered below pH 7.4, and dramatically once the pH falls below 6.3 (FIG. 4A). At pH 5.0, 80% of the peptide is precipitated, but the peptide is not aggregated by acidic environments below pH 5, confirming and extending earlier reports on the effect of pH on Aβ solubility (Burdick, D., J. Biol. Chem. 267:546-554 (1992)). Zn^2+ (30 μM) induced a constant level (˜50%) of aggregation between pH 6.2-8.5, while below pH 6.0, aggregation could be explained solely by the effect of [H^+].

[2] = Metal reduction assay, Cu^2+ to Cu^+; format: biochemical; details: 10 μM Cu^2+, PBS pH 7.4, 1 hr 37° C.
Protocol: Aβ (10 μM in PBS, pH 7.4 or 6.8, as shown) was incubated for 30 minutes (37° C.) in the presence of Cu^2+10 μM ±Zn^2+ 10 μM). […] levels (n=3, ±SD) were assayed against a standard curve.
Polypeptides (10 μM) or Vitamin C (100 μM), metal ions (10 μM, Fe(NO3)3 or Cu(NO3)2), and reduced metal ion indicators, bathophenanthrolinedisulfonic acid (BP, for Fe^2+, Sigma, 200 μM) or bathocuproinedisulfonic acid (BC, for Cu^+, Sigma, 200 μM), were coincubated in phosphate buffered saline (PBS), pH 7.4, for 1 hr at 37° C. The metal ion solutions were prepared by direct dilution in the buffer from their aqueous stocks purchased from National Institute of Standards and Technology (NIST). […] In control samples, both metal ion and indicator were present to determine the background buffer signal. As a further control, both metal ion and peptide were present in the absence of indicator to estimate the contribution of light scattering due to turbidity to the absorbance reading at these wavelengths. The net absorbances (ΔA) at 536 nm or 483 nm were obtained by deducting the absorbances from these controls from the absorbances generated by the peptide and metal in the presence of the respective indicator.

[3] = Metal reduction assay, Fe^3+ to Fe^2+; format: biochemical; details: 10 μM Fe^3+, PBS pH 7.4, 1 hr 37° C.
Protocol: The metal reduction assay was performed using a 96-well microtiter plate (Costar) based upon a modification of established protocols (Landers, J. W., et al., Amer. Clin. Path. 29:590 (1958); Landers, J. W., et al., Clinica Chimica Acta 3:329 (1958)). Polypeptides (10 μM) or Vitamin C (100 μM), metal ions (10 μM, Fe(NO3)3 or Cu(NO3)2), and reduced metal ion indicators, bathophenanthrolinedisulfonic acid (BP, for Fe^2+, Sigma, 200 μM) or bathocuproinedisulfonic acid (BC, for Cu^+, Sigma, 200 μM), were coincubated in phosphate buffered saline (PBS), pH 7.4, for 1 hr at 37° C. The metal ion solutions were prepared by direct dilution in the buffer from their aqueous stocks purchased from National Institute of Standards and Technology (NIST). Absorbances were then measured at 536 mn (Fe^2+-BP complex) and 483 nm (Cu^+-BC complex), respectively, using a 96-well plate reader (SPECTRAmax 250, Molecular Devices, CA). In control samples, both metal ion and indicator were present to determine the background buffer signal. As a further control, both metal ion and peptide were present in the absence of indicator to estimate the contribution of light scattering due to turbidity to the absorbance reading at these wavelengths. The net absorbances (ΔA) at 536 nm or 483 nm were obtained by deducting the absorbances from these controls from the absorbances generated by the peptide and metal in the presence of the respective indicator.
The concentrations of reduced metal ions (Fe^2+ or Cu^+) were quantified based on the formula: Fe^2+ or Cu^+ (˜M)=A*10^6/(L*M), where L is the measured equivalent vertical pathlength for a well of 300 μL volume as described in the instrument's specifications manual (0.856 cm for Fe^2+; 1.049 cm for Cu^+); M is the known molecular absorbance (M^−1 cm^−1) which is 7124 (for Fe^2+-BP complex) or 2762 (for Cu^+-BC complex).

Aβ1-40: synthetic human Aβ peptide, residues 1-40
available peptide aggregated by Cu^2+ ([1]; Cu^2+ (30 μM), pH 6.8): > 85% and 85%
level of aggregation induced by Zn^2+ ([1]; Zn^2+ 30 μM, pH 6.2-8.5): ~50%
aggregation in the presence of Cu ([1]; pH 7.1): approx. 30%
reduction of available Cu^2+ [2]: 60%
reduction of available Fe^3+ [3]: 12%

Source: patent US20020082273A1, “Agents for use in the treatment of alzheimer's disease” (priority 1998, published 2002)
